± gives the standard deviation of the averaged measurements.
Columns and labels:
[1] = tested on: Saccharomyces cerevisiae; experiment: protein stability index of tFT-peptide fusion in wild type (PSI (0-1 scale)); higher = more stable (slower turnover); details: genetic background: wild type
Method: (§1)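 MPS profiling in S. cerevisiae of two library types built from selected 12-aa C-degron peptides (IN1, IN2, LN1, LN3, VN2, R1-R5, W1-W3, Atg1 and Rpa12 C-termini): saturation mutagenesis libraries and C-terminal +1 capping libraries (13 aa). Each peptide is fused to the C-terminus of a sfGFP-mCherry timer, after a GGGS linker. Cells are FACS-sorted into 8 mCherry/sfGFP bins and sequenced. PSI runs from 0 (unstable) to 1 (stable), measured once in wild type and in the das1Δ or doa10Δ background.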

[2] = tested on: Saccharomyces cerevisiae; experiment: protein stability index of tFT-peptide fusion in deletion strain of DAS1 (PSI (0-1 scale)); higher = more stable (slower turnover)
Method: as §1

[3] = tested on: Saccharomyces cerevisiae; experiment: protein stability index of tFT-peptide fusion (C-terminal peptide) (PSI (0-1 scale)); higher = more stable (slower turnover); details: temperature: 30 C
Method: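 MPS profiling in S. cerevisiae of the yeast C-terminome library: the last 12 aa of each annotated ORF are fused to the C-terminus of a sfGFP-mCherry timer, after a GGGS linker. Cells are FACS-sorted into 8 mCherry/sfGFP bins and deep-sequenced. PSI runs from 0 (unstable) to 1 (stable); wild type and das1Δ backgrounds, two technical replicates each.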

[4] = genetic background: das1 deletion
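Throughout, for protein stability index of tFT-peptide fusion in deletion strain of DAS1: PSI is a weighted mean of each variant's read distribution over the sorted stability bins, computed only for variants having over 10 reads in total.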
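Throughout, for protein stability index of tFT-peptide fusion in wild type: PSI derived as read-weighted mean over the 8 sorting bins, only variants exceeding 10 total reads kept, mCherry placed adjacent to the peptide and sfGFP distal.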

Row | Sequence | protein stability index [1] | protein stability index [2] | protein stability index [3, 4] | protein stability index ([3]; genetic background: wild type)
1 | AAWRVGLWRGAS | 0.503 | 0.72 | – | –
2 | AFWRVGLWRGAS | 0.496 | 0.704 | – | –
3 | AKWRVGLWRGAS | 0.392 | 0.692 | – | –
4 | ARARVGLWRGAS | 0.531 | 0.688 | – | –
5 | ARGRVGLWRGAS | 0.432 | 0.685 | – | –
6 | ARWHVGLWRGAS | 0.365 | 0.71 | – | –
7 | ARWPVGLWRGAS | 0.399 | 0.703 | – | –
8 | ARWQVGLWRGAS | 0.444 | 0.656 | – | –
9 | ARWRFGLWRGAS | 0.581 | 0.698 | – | –
10 | ARWRHGLWRGAS | 0.666 | 0.685 | – | –
11 | ARWRVGLARGAS | 0.707 | 0.692 | – | –
12 | ARWRVGLNRGAS | 0.68 | 0.668 | – | –
13 | ARWRVGLQRGAS | 0.677 | 0.69 | – | –
14 | ARWRVGLSRGAS | 0.669 | 0.695 | – | –
15 | ARWRVGLWEGAS | 0.675 | 0.658 | – | –
16 | ARWRVGLWPGAS | 0.71 | 0.689 | – | –
17 | ARWRVGLWRAAS | 0.117 | 0.683 | – | –
18 | ARWRVGLWRDAS | 0.6 | 0.702 | – | –
19 | ARWRVGLWREAS | 0.169 | 0.668 | – | –
20 | ARWRVGLWRGAC | 0.123 | 0.681 | – | –
21 | ARWRVGLWRGASD | 0.688 | 0.686 | – | –
22 | ARWRVGLWRGASF | 0.661 | 0.679 | – | –
23 | ARWRVGLWRGASI | 0.652 | 0.665 | – | –

Row | Sequence | protein stability index [1] | protein stability index [2] | protein stability index [3, 4] | protein stability index ([3]; genetic background: wild type)
24 | ARWRVGLWRGASQ | 0.661 | 0.646 | – | –
25 | ARWRVGLWRGAST | 0.659 | 0.682 | – | –
26 | VKNVLSKVVPPV [MTC2 C-terminal 12 aa] | – | – | 0.688 ± 0.0078 | 0.669 ± 0.04
27 | VKPSQDNVDSKD [OPI1 C-terminal 12 aa] | – | – | 0.687 ± 0.0096 | 0.668 ± 0.022
28 | VKQLEVSSGIKQ [HEM1 C-terminal 12 aa] | – | – | 0.6929 ± 0.0017 | 0.675 ± 0.043
29 | VLAILFYPAWVE [YGR160W C-terminal 12 aa] | – | – | 0.5 ± 0.0098 | 0.529 ± 0.0053
30 | VLDVGSVLDVTI [PSR2 C-terminal 12 aa] | – | – | 0.718 ± 0.035 | 0.6934 ± 0.00093
31 | VLHSIISICRIF [VPS65 C-terminal 12 aa] | – | – | 0.756 ± 0.014 | 0.641 ± 0.036
32 | VMAWTFGYALIG [EMC6 C-terminal 12 aa] | – | – | 0.654 ± 0.015 | 0.452 ± 0.014
33 | VMKAKRKFNPYT [RRP7 C-terminal 12 aa] | – | – | 0.6859 ± 0.0013 | 0.6974 ± 0.0025
34 | VMPIFIYFYTVV [CDC1 C-terminal 12 aa] | – | – | 0.38 ± 0.044 | 0.343 ± 0.0079
35 | VNADDEIENNVD [AMN1 C-terminal 12 aa] | – | – | 0.674 ± 0.0091 | 0.669 ± 0.022
36 | VNGGSKKRKAND [RMI1 C-terminal 12 aa] | – | – | 0.664 ± 0.016 | 0.663 ± 0.0079
37 | VPEFLLHRRNSI [NTE1 C-terminal 12 aa] | – | – | – | 0.75 ± 0.05
38 | VPEPGDQPLVQA [YPR078C C-terminal 12 aa] | – | – | 0.725 ± 0.022 | 0.678 ± 0.023
39 | VPLKEELFPSSS [COX6 C-terminal 12 aa] | – | – | 0.718 ± 0.025 | 0.674 ± 0.0019
40 | VPVILREYKGSA [GCD2 C-terminal 12 aa] | – | – | 0.725 ± 0.017 | 0.665 ± 0.0075
41 | VQRSASVVERQE [DUS4 C-terminal 12 aa] | – | – | 0.6971 ± 0.0051 | 0.694 ± 0.0013
42 | VQRVILITHLNV [YOL083C-A C-terminal 12 aa] | – | – | 0.6054 ± 0.0053 | 0.616 ± 0.0084
43 | VREYNKYCEAIL [VPS13 C-terminal 12 aa] | – | – | 0.687 ± 0.01 | 0.667 ± 0.033
44 | VRQMNRLATPLI [PUS2 C-terminal 12 aa] | – | – | 0.7095 ± 0.0057 | 0.7391 ± 0.0066
45 | VTGKEKFEKLRD [SPG3 C-terminal 12 aa] | – | – | 0.724 ± 0.0027 | 0.685 ± 0.024
46 | VTGPHDRWYVVG [ATG14 C-terminal 12 aa] | – | – | 0.76 ± 0.019 | 0.659 ± 0.024

Row | Sequence | protein stability index [1] | protein stability index [2] | protein stability index [3, 4] | protein stability index ([3]; genetic background: wild type)
47 | VTLLQMKKKLEG [PET20 C-terminal 12 aa] | – | – | 0.6926 ± 0.0053 | 0.761 ± 0.042
48 | VTPEEDEEEDEE [RPL22A C-terminal 12 aa] | – | – | 0.68 ± 0.03 | 0.676 ± 0.062
49 | VYGSERDIRAKF [TES1 C-terminal 12 aa] | – | – | 0.8078 ± 0.007 | 0.816 ± 0.068
50 | VYKDWEMNLMLS [ARG81 C-terminal 12 aa] | – | – | 0.727 ± 0.025 | 0.656 ± 0.024
51 | VYLSVIILMGNG [EMA17 C-terminal 12 aa] | – | – | 0.212 ± 0.024 | 0.247 ± 0.012
52 | WEDKYPEMGVTV [YHL044W C-terminal 12 aa] | – | – | 0.6911 ± 0.003 | 0.706 ± 0.0089
53 | WTWLDGKFPTFA [GRE3 C-terminal 12 aa] | – | – | 0.751 ± 0.023 | 0.7093 ± 0.0009
54 | WVCQEILKLCKD [NRK1 C-terminal 12 aa] | – | – | 0.675 ± 0.0095 | 0.713 ± 0.036
55 | WVRLPTTSHGLD [SPO73 C-terminal 12 aa] | – | – | 0.71917 ± 0.00042 | 0.733 ± 0.016
56 | WYQIVVQMIYIC [PSY1 C-terminal 12 aa] | – | – | 0.186 ± 0.0065 | 0.0907 ± 0.006
57 | YDLVEKCVWRGI [ORC3 C-terminal 12 aa] | – | – | 0.707 ± 0.041 | 0.716 ± 0.022
58 | YEEALKLGWDKN [OYE2 C-terminal 12 aa] | – | – | 0.735 ± 0.046 | 0.762 ± 0.0096
59 | YEEAVDLGWNKN [OYE3 C-terminal 12 aa] | – | – | 0.721 ± 0.009 | 0.714 ± 0.042
60 | YGSAPSLDSLFL [YJL067W C-terminal 12 aa] | – | – | 0.725 ± 0.02 | 0.6981 ± 0.0068
61 | YGTSYVFAISFK [YNL266W C-terminal 12 aa] | – | – | 0.602 ± 0.036 | 0.606 ± 0.0098
62 | YIHTYIYLLFVY [YIL100C-A C-terminal 12 aa] | – | – | 0.222 ± 0.01 | 0.198 ± 0.036
63 | YIVECIKNVLTK [APL3 C-terminal 12 aa] | – | – | 0.686 ± 0.038 | 0.698 ± 0.018
64 | YKKMKEMRKKRR [FCF2 C-terminal 12 aa] | – | – | 0.703 ± 0.022 | 0.71 ± 0.05
65 | YLADELSKALLA [RFA1 C-terminal 12 aa] | – | – | 0.673 ± 0.0099 | 0.6545 ± 0.0044
66 | YMMNSQSPRGKI [POM34 C-terminal 12 aa] | – | – | 0.71 ± 0.0093 | 0.732 ± 0.074
67 | YNITQQILQFLH [VAC8 C-terminal 12 aa] | – | – | 0.701 ± 0.024 | 0.327 ± 0.0072
68 | YPAREGEVLRPN [AKR2 C-terminal 12 aa] | – | – | 0.675 ± 0.025 | 0.697 ± 0.017
69 | YSAVGNFFSRKK [YGR035W-A C-terminal 12 aa] | – | – | 0.718 ± 0.019 | 0.6696 ± 0.002
